# Laboratory results reported in the DeepSol protein solubility set.
# Assay: soluble on expression in E. coli; label from the status in PepcDB or PDB records
row,Sequence,soluble on expression in E. coli
1,MGHHHHHHSHMESLVVGDIAELRPNQGTLSLFTNEAGGILDDLIVTNTSEGHLYVVSNAGCWEKDLALMQDKVRELQNQGRDVGLEVLDNALLALQGPTAAQVLQAGVADDLRKLPFMTSAVMEVFGVSGCRVTRCGYTGEDGVEISVPVAGAVHLATAILKNPEVKLAGLAARDSLRLEAGLCLYGNDIDEHTTPVEGSLSWTLGKRRRAAMDFPGAKVIVPQLKGRVQRRRVGLMCEGAPMRAHSPILNMEGTKIGTVTSGCPSPSLKKNVAMGYVPCEYSRPGTMLLVELPSGPCF,not soluble
2,MGHHHHHHSHMFTMLCINGTTPRPLPVPSPFGCMIFFFFKNPWKQCLLQGWLGARPIHLLGYLPLSLLWCPFPLPCARCSVVYISSPRHGAHAPRDMILSLVLAHGALYKELGGRGRKWEPS,not soluble
3,MGHHHHHHSHMFVYLNPNPKNTLRIDAEALTETRRLAARAWDLKYQMTKQGMHQRMLRAELDNLEILERGHSAALTTNLSLLANVLLDQPAPPDPTQGEEKGLPPSSRVESRTEGVYTVTVYPGDPAFEIQDSLPQKIWPMLYLHQQRWLPSYGPWHIRFTSSAMQLRNFPRSLRGQANFQNSMSLKLITALTDVISRISLDFYSDLRHLSDTMSALCLIAAYYSEKNQTPLPTNLPELLGNITAKVTLLVRDLKRAAANKGFNFNRNSSSLLPAQGGLYSNDFFQEHALYSLFRTAGMLASSSSPEYPRADSVLAITAAVFGDNIPPFAAYQWNLRSGLKALESLILLFLLLDVNVPATSNKRLHLEALLGESYSKGSRPPARRTGPLDAGGSVFSFLMENYLVPTLLHRPTTNMSALFPGLYLLQLEFSSGASTPHAIHLTDVKFRDIFNILVQSNVFQDSQELIRAKQSLRVSCETGSGNLLESLSPGTTMRDIIRKEFMAQDVYDYVYFCVLGALPVTVAVV,not soluble
4,MGHHHHHHSHMGITTNLISEVSKFYYALKYHAKFMSLGELGCYASHYSLWEKCIELNEAICILEDDITLKEDFKEGLDFLEKHIQELGYIRLMHLLYDASVKSEPLSHKNHEIQERVGIIKAYSEGVGTQGYVITPKIAKVFLKCSRKWVVPVDTIMDATFIHGVKNLVLQPFVIADDEQISTIARKEEPYSPKIALMRELHFKYLKYWQFV,not soluble
5,MGHHHHHHSHMKQWKEKKKKKKPIQEPEVPQIDVPNLKPIFGIPLADAVERTMMYDGIRLPAVFRECIDYVEKYGMKCEGIYRVSGIKSKVDELKAAYDREESTNLEDYEPNTVASLLKQYLRDLPENLLTKELMPRFEEACGRTTETEKVQEFQRLLKELPECNYLLISWLIVHMDHVIAKELETKMNIQNISIVLSPTVQISNRVLYVFFTHVQELFGNVVLKQVMKPLRWSNMATMPTLPETQAGIKEE,soluble
6,MGHHHHHHSHMKSREGSVHPQVEIANLLLIQSSLANLPPGPCWFCLASPEVEKHLVVNIGTHCYLALAKGGLSDDHVLILPIGHYQSVVELSAEVVEEVEKYKATLRRFFKSRGKWCVVFERNYKSHHLQLQVIPVPISCSTTDDIKDAFITQAQEQQIELLEIPEHSDIKQIAQPGAAYFYVELDTGEKLFHRIKKNFPLQFGREVLASEAILNVPDKSDWRQCQISKEDEETLARRFRKDFEPYDFTLDD,not soluble
7,MGHHHHHHSHMKTRQAFYLHTTKLTRIARRLCREILRPWHAARHPYLPINSAAIKAECTARLPEASQSPLVLKQAVRKPLEAVLRYLETHPRPPKPDPVKSVSSVLSSLTPAKVAPVINNGSPTILGKRSYEQHNGVDGNMKKRLLMPSRGTYLGLANHGQTRHMGPSRNLLLNGKSYPTKVRLIRGGSLPPVKRRRMNWIDAPDDVFYMATEETRKIRKLLSSSETKRAARRPYKPIALRQSQALPPRPPPPAPVNDEPIVIED,not soluble
8,MGHHHHHHSHMLKDFLKEQGFEVRENHEVDAVIIGQDKEIEFKKIKNATSAVFLKGAKIIPVNLSKIVKDSDGLYFPGSGSYAYMFKHATNYEGEIPNLGKPSKEFINLALEGLPREKVFLISDDIYTDLMGAKELGIGTIFMTTGKYKQEELKKANFKPDYVFHSLKELMREIKKWLS,not soluble
9,MGHHHHHHSHMLRVLLSAQTSPARLSGLLLIPPVQPCCLGPSKWGDRPVGGGPSAGPAQGLQRLLEQAKSPGELLRWLGQNPSKVRAHHYSVALRRLGQLLGSRPRPPPVEQVTLQDLSQLIIRNCPSFDIHTIHVCLHLAVLLGGTEVGPALWATELPAPGTAVYALP,not soluble
10,MGHHHHHHSHMPDHGDWTYEEQFKQLYELDGDPKRKEFLDDLFSFMQKRGTPVNRIPIMAKQVLDLFMLYVLVTEKGGLVEVINKKLWREITKGLNLPTSITSAAFTLRTQYMKYLYPYECEKRGLSNPNELQAAIDSNRREGRR,soluble
11,MGHHHHHHSHMPPGGHIESGASFSPSAGSDGDKGLKPREEGEAPEAGPCLASQLAPVQWVAPPRLLLRLIFIDLPALLIAPTAESSAEEDEEPHDEGQSSEDQAPIANGLIVIVERVHVPLGAAATVHRQPSHFPR,not soluble
12,MGHHHHHHSHMRLPSKPYSTLPIFSLGPSALQRGESSMRSEKPSTAHHRPLRSIARFSSKSKSMDKSDEELQFPKELMEDWSTMEVCVDCKKFISEIISSSRRSLVLANKRARLKRKTQSFYMSSPGPSEYCPSERTISEI,not soluble
13,MGHHHHHHSHMSEFMQRFADLRDRKAYAEIVDALPYVKLMGTSMAEDEQGELRFELPFLQRNVGNTTLPALHGGLIGGFMESAAMIHLMWNRESLEAPKIVDFSLDYLRPGRPQTLFAQCEITKQGKRVAHVLIEAWQDDRSKPVAVARAHFLLTN,soluble
14,MGHHHHHHSHMSKESVTVAGIDCGTNSIRLKIARVDADGMHEVVPRILRVIRLGQDVDKTHRFADEALERAYVAAREFAGVIAEHPIDGLRFVATSATRDAENREEFEDEIERILGVRPEVIPGTEEADLSFLGATSVVNRDDLPAPYLVVDLGGGSTELVIGGDGVSAPTTQVQGAFSMNIGSVRMTERHLTNDPPTQTQIDEAVADVDEHIDEAFRTVDAGKARTIIGVSGTVTTMTALAMGLKEYDHTVVDGHRLSFEDAYAVDDKFLRMTRAERREYKTIHPGRIDVVGGGAVVWSRVLARVSEAAKADHGEAIDSFVASEHGLLDGIVLDYGRRLLAQ,soluble
15,MGHHHHHHSHMSTKVPIYLKRGSRKGKKEKLRDLLSSDMISPPLGDFRHTIHIGSGGGSDMFGDISFLQGKFHLLPGTMVEGPEEDGTFDLPFQFTRTATVCGRELPDGPSPLLKNAISLPVIGGPQALTLPTAQAPPKPPRLHLETPQPSPQEGGSVDIWRIPETGSPNSGLTPESGAEEPFLSSASSLLSLHVDLGPSILDDVLQIMDQDLDSMQIPT,soluble
16,MGHHHHHHSHMTLEEFSAGEQKTERMDKVGDALEEVLSKALSQRTITVGVYEAAKLLNVDPDNVVLCLLAADEDDDRDVALQIHFTLIQAFCCENDINILRVSNPGRLAELLLLETDAGPAASEGAEQPPDLHCVLVTNPHSSQWKDPALSQLICFCRESRYMDQWVPVINLPER,not soluble
17,MGHHHHHHSHMVEFPLPPHLTCAVIKAASLDCEDLLLPIAAMLSVENVFIRPVDPEYQKEAEQRHRELAAKAGGFNDFATLAVIFEQCKSSGAPASWCQKHWIHWRCLFSAFRVEAQLRELIRKLKQQSDFPKETFEGPKHEVLRRCLCAGYFKNVARRSVGRTFCTMDGRGSPVHIHPSSALHEQETKLEWIIFHEVLVTTKVYARIVCPIRYEWVRDLLPKLHEFNAHDLSSVARREVREDARRRWTNKENVKQLKDGISKDVLKKMQRRNDDKSISDARARFLERKQQRTQDHSDTRKETG,not soluble
18,MGHHHHHHSHMVKFKVIALAALMGISGMAAQANELPDGPHIVTSGTASVDAVPDIATLAIEVNVAAKDAATAKKQADERVAQYISFLELNQIAKKDISSANLRTQPDYDYQDGKSILKGYRAVRTVEVTLRQLDKLNSLLDGALKAGLNEIRSVSLGVAQPDAYKDKARKAAIDNAIHQAQELANGFHRKLGPVYSVRYHVSNYQPSPMVRMMKADAAPVSAQETYEQAAIQFDDQVDVVFQLEPVDQQPAKTPAAQ,soluble
